Data reported in patent US7943358B2, “Polymerase enhancing factor (PEF) extracts, PEF protein complexes, isolated PEF protein, and methods for purifying and identifying” (Agilent Technologies, Inc., priority 1997, dated 2011).

Experiment: Reverse phase HPLC analysis of dUTP conversion
Assay type: biochemical
Conditions: 72° C.
Method: The similarity of P45 to dCTP deaminases prompted us to test whether dCTP or other nucleotide triphosphates were substrates of PEF/P45. PEF was incubated with dCTP or dUTP and the reaction products were separated by reverse phase HPLC. Reaction mixtures (50 μl) containing 1× cloned Pfu polymerase buffer, 10 mM dCTP or dUTP, and 700 ng PEF (or 5 μl of cloned p45 (˜100 ng) or nothing (neg. control)) were incubated at 72° C. for 1 hour. The samples were injected on a […] Waters Delta-pak C-18 column (300 angstrom/15 μm), equilibrated in 50 mM triethylammonium acetate, pH (7.0) (A). Products were eluted with acetonitrile (B) at 2 ml/min. using the following gradient: 0% B for 5 minutes, 0-10% B over 20 minutes. Absorbence of the eluate was monitored with a photodiode array detector, and peak areas were integrated at 260 nm.
In a separate Western assay, samples from Thermus thermophilis were run out on an SDS-PAGE gel and probed with the rP45 antisera. […] The PEF as dUTPase activity in these samples was further confirmed by a dUTP conversion assay employing reverse phase HPLC.

B1: PEF: polymerase enhancing factor complex purified from Pyrococcus furiosus; predominant components P50 and P45 (protein)
chain 1: MLHHVKLIYATKSRKLVGKKIVXXXPGSIAALDVKACEGLIRHGAEVHAVMSEAATKIIHPYAWNLPTGNPVITEITGFIEHVELAGEHENKADLILVCPATANTISKIACGIDDTPVTTVVTTAFPHIPIMIAPAMHETMYRHPIVRENIERLKKLGVEFIGPRIEEGRAKVASIDEIVYRVIKKLHKKTLEGKRVLVTAGATREYIDPIRFITNASSGKMGVALAEEADFRGAVTLIRTKGSVKAFRIRKIKLKVETVEEMLSAIENELRSKKYDVVIMAAAVSDFRPKIKAEGKIKSGRSITIELVPXNPKIIDRIKEIQPNVFLVGFKAETSKEKLIEEGKRQIERAKADLVVGNTLEAFGSEENQVVLIGRDFTKELPKMKKRELAERIWDEIEKXLS
chain 2: MLLPDWKIRKEILIEPFSEESLQPAGYDLRVGREAFVKGKLIDVEKEGKVVIPPREYALILTLERIKLPDDVMGDMKIRSSLAREGVIGSFAWVDPGWDGNLTLMLYNASNEPVELRYGERFVQIAFIRLEGPARNPYRGNYQGSTRLAFSKRKKL
modifications: not fully specified; X: residue not identified in the source
notes: polymerase enhancing factor complex purified from Pyrococcus furiosus; predominant components P50 and P45
dUTP peak after incubation (10 mM dUTP, one hour): 0.1 % total peak area
new peak eluting at 4.400 minutes (dUMP) (10 mM dUTP, one hour): 98 % total peak area
dUTP converted (1 hour, 700 ng PEF): 100%
